In assay [1] the target is T1, LMO4 (Homo sapiens (Human), UniProt P61968 1-165).
T1 sequence: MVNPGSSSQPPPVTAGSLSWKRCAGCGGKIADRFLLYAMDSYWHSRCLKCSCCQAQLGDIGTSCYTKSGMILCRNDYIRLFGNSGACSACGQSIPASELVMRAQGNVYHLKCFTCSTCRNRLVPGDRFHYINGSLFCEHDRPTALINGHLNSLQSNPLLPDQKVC
Description: yeast two-hybrid screen.

The target in assay [2] is T2, sorting nexin 5 (Homo sapiens (Human), UniProt Q9Y5X3 1-404, limits assumed).
T2 construct: also called SNX5; Myc-SNX5
T2 sequence: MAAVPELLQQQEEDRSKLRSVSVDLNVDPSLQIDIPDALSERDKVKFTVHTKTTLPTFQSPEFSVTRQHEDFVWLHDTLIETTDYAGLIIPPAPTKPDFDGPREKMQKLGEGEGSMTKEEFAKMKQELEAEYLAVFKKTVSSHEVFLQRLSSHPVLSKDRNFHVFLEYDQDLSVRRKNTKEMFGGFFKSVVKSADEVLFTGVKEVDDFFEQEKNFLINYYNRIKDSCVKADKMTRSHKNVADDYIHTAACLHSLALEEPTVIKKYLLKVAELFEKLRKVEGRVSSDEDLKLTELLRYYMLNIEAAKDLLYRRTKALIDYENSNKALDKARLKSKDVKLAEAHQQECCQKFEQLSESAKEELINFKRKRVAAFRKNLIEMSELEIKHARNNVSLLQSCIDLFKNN
Nature of the assay: yeast two-hybrid screen.

Where no end group is shown, it is not given here.

B1: C-terminus of the PIPKIγ 700 variant (other)
chain: WRLWGPHAPTWPWRREGRAACLCPYPPHVVTPFPGTGLCASWSPDGTGGLGAMSCCVSVS
modifications: not fully specified; cysteine pairing not given here
notes: Yeast two-hybrid bait
Regarding B1, in assay [1], the binding result was “binds”.

B2: C-terminus of the PIPKIγ 707 splice variant (other)
chain: FTDGRYWIYSPRHRRLRAVTLSASGTVSDRSRPPWGEGAVPLGQQGAAGPRPEAQCLTSVVFQKGFG
notes: Yeast two-hybrid bait
As to B2, in assay [2], the binding result is given as “binds”.

The values are drawn from patent US20090208949A1 (WISCONSIN ALUMNI RESEARCH FOUNDATION, published 2009).
